We go through 4 molecules from US20240084009A1 (HARPOON THERAPEUTICS, published 2024).

One experiment addresses T1, biotinylated hu-CD3ε (human, UniProt P07766 23-126, limits assumed, biotinylated (site not stated)).
T1 construct: The construct is not described; also called biotin-CD3ε; human CD3ε
As to the kind of experiment: kinetic Kd determination of the expressed scFv, method not named.

For a further experiment, the target named is T2, cyno CD3e (Macaca fascicularis (cynomolgus monkey), UniProt Q95LI5).
T2 construct: not described; also called cynomolgus CD3ε; cynomolgus CD3
T2 sequence (CD3 epsilon, looked up): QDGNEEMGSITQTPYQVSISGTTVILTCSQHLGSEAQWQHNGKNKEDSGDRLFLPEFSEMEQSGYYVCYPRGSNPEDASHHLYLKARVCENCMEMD
The experiment is described as above.

Usually Kd stands for a measure of binding affinity in units of concentration. A higher Kd goes with a looser complex. The term koff denotes the first-order rate constant of dissociation. Read a low koff as slow dissociation. In general, kon refers to a measure of how fast the partners come together. Higher therefore signals faster complex formation.

Where a chain is given by its changes, count along the chain named.

T1 sequence (P07766 23-126 limits assumed): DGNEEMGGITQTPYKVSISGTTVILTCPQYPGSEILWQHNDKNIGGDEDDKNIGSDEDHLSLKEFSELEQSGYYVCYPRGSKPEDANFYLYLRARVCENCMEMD

B1: Anti-CD3, clone 2G5 (scFv)
scFv: EVQLVESGGGLVQPGGSLKLSCAASGFTFNKYALNWVRQAPGKGLEWVARIRSKYNNYATEYADSVKDRFTISRDDSKNTAYLQMNNLKTEDTAVYYCVRHGNFGNSPISYWAYWGQGTLVTVSSGGGGSGGGGSGGGGSQTVVTQEPSLTVSPGGTVTLTCGSSTGAVTSGNYPNWVQQKPGQAPRGLIGGTNFLAPGTPERFSGSLLGGKAALTLSGVQPEDEAEYYCVLWYSNRWAFGGGTKLTVLHHHHHH
notes: Expressed in Expi293 from the pcDNA3.4 His6 vector
As for B1, in the experiment with biotinylated hu-CD3ε, binding was put at a Kd of 117 nM, the off-rate constant (koff) is 0.115 s⁻¹ and the kon is 994000 M⁻¹ s⁻¹. For the same molecule, in the experiment with cyno CD3e, binding was put at a Kd of 115 nM, the koff amounted to 0.111 s⁻¹ and the kon was determined as 964000 M⁻¹ s⁻¹.

B2: Anti-CD3, clone 10E4 (scFv)
scFv: EVQLVESGGGLVQPGGSLKLSCAASGFTFNKYPMNWVRQAPGKGLEWVARIRSKYNNYATYYADSVKDRFTISRDDSKNTAYLQMNNLKNEDTAVYYCVRHGNFNNSYISYWAYWGQGTLVTVSSGGGGSGGGGSGGGGSQTVVTQEPSLTVSPGGTVTLTCGSSTGAVTKGNYPNWVQQKPGQAPRGLIGGTKMLAPGTPARFSGSLLGGKAALTLSGVQPEDEAEYYCALWYSNRWVFGGGTKLTVLHHHHHH
notes: as for B1
B2: in the experiment with biotinylated hu-CD3ε, the Kd was 49.8 nM, the koff came out at 0.026 s⁻¹ and the kon is 522000 M⁻¹ s⁻¹. In the experiment with cyno CD3e, this molecule came in with a Kd of 46.8 nM, a koff of 0.0238 s⁻¹ and an on-rate (kon) of 508000 M⁻¹ s⁻¹.

B3: Anti-CD3, clone 6A2 (scFv)
scFv: EVQLVESGGGLVQPGGSLKLSCAASGFMFNKYAMNWVRQAPGKGLEWVARIRSKSNNYATYYADSVKDRFTISRDDSKNTAYLQMNNLKTEDTAVYYCVRHGNFGNSYISYWATWGQGTLVTVSSGGGGSGGGGSGGGGSQTVVTQEPSLTVSPGGTVTLTCGSSFGAVTSGNYPNWVQQKPGQAPRGLIGGTKLLAPGTPARFSGSLLGGKAALTLSGVQPEDEAEYYCVLWYSNSWVFGGGTKLTVLHHHHHH
notes: as for B1
In the case of B3, in the experiment with biotinylated hu-CD3ε, the Kd is 4.7 nM, the koff is 0.00248 s⁻¹ and the kon is 522000 M⁻¹ s⁻¹. For the same molecule, in the experiment with cyno CD3e, the Kd came out at 4.9 nM, the koff stood at 0.00222 s⁻¹ and the on-rate constant (kon) was determined as 456000 M⁻¹ s⁻¹.

B4: Anti-CD3, clone 3F2 (scFv)
scFv: B3 scFv with M28T, F29Y, S55Y, S65E, Y108P, T114Y, F166K, L195E, V231T, S237R
notes: as for B1
In the experiment with biotinylated hu-CD3ε, B4 showed a Kd of 8 nM, a koff of 0.00502 s⁻¹ and a kon of 704000 M⁻¹ s⁻¹. In addition, in the experiment with cyno CD3e, the Kd worked out at 6.6 nM, the koff is 0.00438 s⁻¹ and the kon was found to be 712000 M⁻¹ s⁻¹.
